Literature values as cited in publication PMC12112028.
pKd, pKi: −log10 of the molar value. Like-named read-outs stand apart in the source and are kept apart here.

How the values were obtained:
[1] = molecular target: KISS1R (Homo sapiens) (UniProt Q969F8)
[2] = molecular target: KISS1R (Homo sapiens) (UniProt Q969F8); remark: listed apart in the source
[3] = molecular target: KISS1R (Rattus norvegicus) (UniProt Q924U1)
[4] = molecular target: KISS1R (Rattus norvegicus) (UniProt Q924U1); remark: listed apart in the source
[5] = molecular target: KISS1R (Homo sapiens) (UniProt Q969F8); remark: listed apart in the source
[6] = molecular target: KISS1R (Rattus norvegicus) (UniProt Q924U1); assay: competitive binding assay
[7] = molecular target: KISS1R (Homo sapiens) (UniProt Q969F8); assay: competitive binding assay

UniProt Q969F8, sequence (Q969F8 whole entry): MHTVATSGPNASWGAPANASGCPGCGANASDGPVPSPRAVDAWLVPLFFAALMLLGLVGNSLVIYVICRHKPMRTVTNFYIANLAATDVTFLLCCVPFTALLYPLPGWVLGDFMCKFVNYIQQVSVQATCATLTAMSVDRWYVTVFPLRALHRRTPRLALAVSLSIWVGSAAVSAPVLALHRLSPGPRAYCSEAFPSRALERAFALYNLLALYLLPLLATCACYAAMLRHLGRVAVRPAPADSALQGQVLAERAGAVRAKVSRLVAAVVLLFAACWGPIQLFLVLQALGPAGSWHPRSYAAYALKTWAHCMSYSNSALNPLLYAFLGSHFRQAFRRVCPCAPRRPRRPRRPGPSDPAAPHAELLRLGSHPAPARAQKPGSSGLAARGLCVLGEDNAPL
UniProt Q924U1, sequence (Q924U1 whole entry): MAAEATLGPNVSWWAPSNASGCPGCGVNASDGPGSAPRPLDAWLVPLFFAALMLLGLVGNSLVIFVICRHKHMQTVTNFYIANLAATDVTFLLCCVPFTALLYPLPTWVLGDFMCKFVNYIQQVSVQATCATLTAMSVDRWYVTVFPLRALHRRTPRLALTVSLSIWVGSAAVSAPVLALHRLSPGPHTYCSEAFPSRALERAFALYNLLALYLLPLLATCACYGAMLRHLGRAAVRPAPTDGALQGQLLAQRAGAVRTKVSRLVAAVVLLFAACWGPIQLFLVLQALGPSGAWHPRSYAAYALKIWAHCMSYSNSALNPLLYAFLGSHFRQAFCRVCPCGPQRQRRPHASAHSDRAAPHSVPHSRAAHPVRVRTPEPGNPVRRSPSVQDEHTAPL

Row | pKi [1] | pKd [2] | pKi [3] | pKd [4] | pKi [5] | pKi [6] | pKi [7] | Substance
1 | 8.63 | 8.72 | 8.80 | 9.00 |  |  |  | KP-10 (from UniProt Q15726)
2 |  |  |  |  | 8.37 | 8.68 |  | KP-13 (from UniProt Q15726)
3 |  |  |  |  |  | 8.69 | 8.78 | KP-14 (from UniProt Q15726)
4 |  |  |  |  |  | 8.74 | 8.84 | KP-54 (from UniProt Q15726)
